In one test the target is T1, CD28 on CD4+ T cells (human, UniProt P10747 19-220).
T1 construct: whole, on cells
In words: binding to CD4+ T cells (FIG. 3; method not described).

The next test deals with T2, CD19 on cells (UniProt P15391 20-556, limits assumed).
T2 construct: whole, on cells
T2 sequence (looked up): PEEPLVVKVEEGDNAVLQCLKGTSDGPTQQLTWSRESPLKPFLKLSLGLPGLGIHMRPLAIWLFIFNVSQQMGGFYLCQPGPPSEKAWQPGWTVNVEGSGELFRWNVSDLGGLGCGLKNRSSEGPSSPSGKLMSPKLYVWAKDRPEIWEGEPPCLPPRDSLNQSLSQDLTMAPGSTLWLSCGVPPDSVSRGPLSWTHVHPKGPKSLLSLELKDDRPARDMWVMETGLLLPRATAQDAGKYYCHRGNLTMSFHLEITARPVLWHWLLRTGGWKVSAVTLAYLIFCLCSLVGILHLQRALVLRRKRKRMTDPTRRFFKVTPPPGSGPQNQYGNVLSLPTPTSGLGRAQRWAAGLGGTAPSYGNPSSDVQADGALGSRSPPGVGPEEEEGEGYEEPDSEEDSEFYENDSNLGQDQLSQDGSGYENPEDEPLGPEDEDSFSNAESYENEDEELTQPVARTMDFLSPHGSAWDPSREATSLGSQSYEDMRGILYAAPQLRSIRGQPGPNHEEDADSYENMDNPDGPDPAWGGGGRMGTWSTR
In words: flow cytometry on Rec1 (CD19+, CD20+) cells, 100 nM to 0.1 nM, goat anti-human IgG-FITC. An excerpt: (§1) T-cells were isolated from donor PBMCs using a Pan T-cell Isolation Kit II from Miltenyi Biotec (Bergisch Gladbach, Germany). Non T-cells were separated from PBMCs by being indirectly magnetically labeled with biotin-conjugated monoclonal antibodies and anti-biotin magnetic microbeads. These cells were then depleted by retaining them in a column surrounded by a magnetic field. The T-cells were not retained in the column and were collected in the flow through.
(§2) The cells were washed three times and then incubated with goat anti-human IgG-FITC (1:200 dilution) for another 30 minutes at 4° C. The cells were then washed again three times, fixed in 1% paraformaldehyde and read on a FACS-Calibur instrument.

The target in a further test is T3, CD20 on cells (UniProt P11836 1-297, limits assumed).
T3 construct: whole, on cells
T3 sequence (looked up): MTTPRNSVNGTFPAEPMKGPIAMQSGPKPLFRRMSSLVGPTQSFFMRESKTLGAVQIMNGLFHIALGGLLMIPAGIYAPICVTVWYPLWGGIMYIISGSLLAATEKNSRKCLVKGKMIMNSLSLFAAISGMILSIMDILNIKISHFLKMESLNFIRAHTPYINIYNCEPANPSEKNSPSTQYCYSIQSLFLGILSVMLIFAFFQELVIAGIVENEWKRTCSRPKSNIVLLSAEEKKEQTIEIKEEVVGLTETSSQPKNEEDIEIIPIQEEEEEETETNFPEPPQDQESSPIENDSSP
The test is described as above.
From the text: as §1, §2

B1: 2E12 (anti-CD28) scFv (scFv)
scFv: QVQLKESGPGSVAPSQSLSITCTVSGFSLTGYGVNWVRQPPGKGLEWLGMIWGDGSTDYNSALKSRLSITKDNSKSQVFLKMNSLQTDDTARYYCARDGYSNFHYYVMDYWGQGTSVTVSSGGGGSGGGGSGGGGSGGGGSDIVLTQSPASLAVSLGQRATISCRASESVEYYVTSLMQWYQQKPGQPPKLLISAASNVESGVPARFSGSGSGTDFSLNIHPVEEDDIAMYFCQQSRKVPWTFGGGTKLEIK
notes: also called 2E12 scFv
As to B1, in the test with CD28 on CD4+ T cells, the binding result was “binds”.

B2: bivalent anti-CD28 polypeptide heterodimer X0172 (Fc fusion)
chain 1: QVQLKESGPGSVAPSQSLSITCTVSGFSLTGYGVNWVRQPPGKGLEWLGMIWGDGSTDYNSALKSRLSITKDNSKSQVFLKMNSLQTDDTARYYCARDGYSNFHYYVMDYWGQGTSVTVSSGGGGSGGGGSGGGGSGGGGSDIVLTQSPASLAVSLGQRATISCRASESVEYYVTSLMQWYQQKPGQPPKLLISAASNVESGVPARFSGSGSGTDFSLNIHPVEEDDIAMYFCQQSRKVPWTFGGGTKLEIKSSSASTKGPSVFPLAPSSKSTSGGTAALGCLVKDYFPEPVTVSWNSGALTSGVHTFPAVLQSSGLYSLSSVVTVPSSSLGTQTYICNVNHKPSNTKVDKKVRTEPKSSDKTHTCPPCPSGAPELLGGPSVFLFPPKPKDTLMISRTPEVTCVVVDVSHEDPEVKFNWYVDGVEVHNAKTKPREEQYNSTYRVVSVLTVLHQDWLNGKEYKCKVSNKALPAPIEKTISKAKGQPREPQVYTLPPSRDELTKNQVSLTCLVKGFYPSDIAVEWESNGQPENNYKTTPPVLDSDGSFFLYSKLTVDKSRWQQGNVFSCSVMHEALHNHYTQKSLSLSPGKSRTVAAPSVFIFPPSDEQLKSGTASVVCLLNNFYPREAKVQWKVDNALQSGNSQESVTEQDSKDSTYSLSSTLTLSKADYEKHKVYACEVTHQGLSSPVTKSFNRGE
chain 2: TVAAPSVFIFPPSDEQLKSGTASVVCLLNNFYPREAKVQWKVDNALQSGNSQESVTEQDSKDSTYSLSSTLTLSKADYEKHKVYACEVTHQGLSSPVTKSFNRGERTEPKSSDKTHTCPPCPSGAPELLGGPSVFLFPPKPKDTLMISRTPEVTCVVVDVSHEDPEVKFNWYVDGVEVHNAKTKPREEQYNSTYRVVSVLTVLHQDWLNGKEYKCKVSNKALPAPIEKTISKAKGQPREPQVYTLPPSRDELTKNQVSLTCLVKGFYPSDIAVEWESNGQPENNYKTTPPVLDSDGSFFLYSKLTVDKSRWQQGNVFSCSVMHEALHNHYTQKSLSLSPGKSRASTKGPSVFPLAPSSKSTSGGTAALGCLVKDYFPEPVTVSWNSGALTSGVHTFPAVLQSSGLYSLSSVVTVPSSSLGTQTYICNVNHKPSNTKVDKKVNSLFNQEVQIPLTESYSPNSQVQLKESGPGSVAPSQSLSITCTVSGFSLTGYGVNWVRQPPGKGLEWLGMIWGDGSTDYNSALKSRLSITKDNSKSQVFLKMNSLQTDDTARYYCARDGYSNFHYYVMDYWGQGTSVTVSSGGGGSGGGGSGGGGSGGGGSDIVLTQSPASLAVSLGQRATISCRASESVEYYVTSLMQWYQQKPGQPPKLLISAASNVESGVPARFSGSGSGTDFSLNIHPVEEDDIAMYFCQQSRKVPWTFGGGTKLEIK
notes: also called X0130 + X0168
Take B2: in the test with CD28 on CD4+ T cells, the binding result is “binds”.

B3: monovalent anti-CD28 polypeptide heterodimer X0124 (Fc fusion)
chain 1: QVQLKESGPGSVAPSQSLSITCTVSGFSLTGYGVNWVRQPPGKGLEWLGMIWGDGSTDYNSALKSRLSITKDNSKSQVFLKMNSLQTDDTARYYCARDGYSNFHYYVMDYWGQGTSVTVSSGGGGSGGGGSGGGGSGGGGSDIVLTQSPASLAVSLGQRATISCRASESVEYYVTSLMQWYQQKPGQPPKLLISAASNVESGVPARFSGSGSGTDFSLNIHPVEEDDIAMYFCQQSRKVPWTFGGGTKLEIKSSSASTKGPSVFPLAPSSKSTSGGTAALGCLVKDYFPEPVTVSWNSGALTSGVHTFPAVLQSSGLYSLSSVVTVPSSSLGTQTYICNVNHKPSNTKVDKKVRTEPKSSDKTHTCPPCPSGAPELLGGPSVFLFPPKPKDTLMISRTPEVTCVVVDVSHEDPEVKFNWYVDGVEVHNAKTKPREEQYNSTYRVVSVLTVLHQDWLNGKEYKCKVSNKALPAPIEKTISKAKGQPREPQVYTLPPSRDELTKNQVSLTCLVKGFYPSDIAVEWESNGQPENNYKTTPPVLDSDGSFFLYSKLTVDKSRWQQGNVFSCSVMHEALHNHYTQKSLSLSPGK
chain 2: TVAAPSVFIFPPSDEQLKSGTASVVCLLNNFYPREAKVQWKVDNALQSGNSQESVTEQDSKDSTYSLSSTLTLSKADYEKHKVYACEVTHQGLSSPVTKSFNRGERTEPKSSDKTHTCPPCPSGAPELLGGPSVFLFPPKPKDTLMISRTPEVTCVVVDVSHEDPEVKFNWYVDGVEVHNAKTKPREEQYNSTYRVVSVLTVLHQDWLNGKEYKCKVSNKALPAPIEKTISKAKGQPREPQVYTLPPSRDELTKNQVSLTCLVKGFYPSDIAVEWESNGQPENNYKTTPPVLDSDGSFFLYSKLTVDKSRWQQGNVFSCSVMHEALHNHYTQKSLSLSPGK
notes: One 2E12 (anti-CD28) scFv only; also called X0112 + X0113
For B3, in the test with CD28 on CD4+ T cells, the binding result was “binds”.

B4: bispecific polypeptide heterodimer TSC020 (anti-CD19 and anti-CD3) (bispecific antibody)
chain 1: DIVLTQSPASLAVSLGQRATISCKASQSVDYDGDSYLNWYQQIPGQPPKLLIYDASNLVSGIPPRFSGSGSGTDFTLNIHPVEKVDAATYHCQQSTEDPWTFGGGTKLEIKGGGGSGGGGSGGGGASQVQLQQSGAELVRPGSSVKISCKASGYAFSSYWMNWVKQRPGQGLEWIGQIWPGDGDTNYNGKFKGKATLTADESSSTAYMQLSSLASEDSAVYFCARRETTTVGRYYYAMDYWGQGTSVTVSSSEPKSSDKTHTCPPCPSGAPELLGGPSVFLFPPKPKDTLMISRTPEVTCVVVDVSHEDPEVKFNWYVDGVEVHNAKTKPREEQYNSTYRVVSVLTVLHQDWLNGKEYKCKVSNKALPAPIEKTISKAKGQPREPQVYTLPPSRDELTKNQVSLTCLVKGFYPSDIAVEWESNGQPENNYKTTPPVLDSDGSFFLYSKLTVDKSRWQQGNVFSCSVMHEALHNHYTQKSLSLSPGKSRASTKGPSVFPLAPSSKSTSGGTAALGCLVKDYFPEPVTVSWNSGALTSGVHTFPAVLQSSGLYSLSSVVTVPSSSLGTQTYICNVNHKPSNTKVDKKV
chain 2: EVQLQQSGPELVKPGASMKISCKASGYSFTGYIVNWLKQSHGKNLEWIGLINPYKGLTTYNQKFKGKATLTVDKSSSTAYMELLSLTSEDSAVYYCARSGYYGDSDWYFDVWGAGTTVTVSSGGGGSGGGGSGGGGSAQDIQMTQTTSSLSASLGDRVTISCRASQDIRNYLNWYQQKPDGTVKLLIYYTSRLHSGVPSRFSGSGSGTDYSLTIANLQPEDIATYFCQQGNTLPWTFGGGTKLVTKRSSEPKSSDKTHTCPPCPSGAPELLGGPSVFLFPPKPKDTLMISRTPEVTCVVVDVSHEDPEVKFNWYVDGVEVHNAKTKPREEQYNSTYRVVSVLTVLHQDWLNGKEYKCKVSNKALPAPIEKTISKAKGQPREPQVYTLPPSRDELTKNQVSLTCLVKGFYPSDIAVEWESNGQPENNYKTTPPVLDSDGSFFLYSKLTVDKSRWQQGNVFSCSVMHEALHNHYTQKSLSLSPGKSRTVAAPSVFIFPPSDEQLKSGTASVVCLLNYFYPREAKVQWKVDNALQSGNSQESATEQDSKDSTYSLSSELTLSKADYEKHKVYACEVTHQGLSSPVTKSFNRGE
notes: HD37 (anti-CD19) scFv and G19-4 (anti-CD3) scFv; also called CD19×αCD3; TSC001 + TSC019
In the case of B4, the binding result in the test with CD19 on cells is recorded as “binds”.

B5: bispecific (CD20, CD3) polypeptide heterodimer TSC021 (bispecific antibody)
chain 1: QIVLSQSPAILSASPGEKVTMTCRASSSVSYMHWYQQKPGSSPKPWIYAPSNLASGVPARFSGSGSGTSYSLTISRVEAEDAATYYCQQWSFNPPTFGAGTKLELKDGGGSGGGGSGGGGASQAYLQQSGAESVRPGASVKMSCKASGYTFTSYNMHWVKQTPRQGLEWIGAIYPGNGDTSYNQKFKGKATLTVDKSSSTAYMQLSSLTSEDSAVYFCARVVYYSNSYWYFDVWGTGTTVTVSSSEPKSSDKTHTCPPCPSGAPELLGGPSVFLFPPKPKDTLMISRTPEVTCVVVDVSHEDPEVKFNWYVDGVEVHNAKTKPREEQYNSTYRVVSVLTVLHQDWLNGKEYKCKVSNKALPAPIEKTISKAKGQPREPQVYTLPPSRDELTKNQVSLTCLVKGFYPSDIAVEWESNGQPENNYKTTPPVLDSDGSFFLYSKLTVDKSRWQQGNVFSCSVMHEALHNHYTQKSLSLSPGKSRASTKGPSVFPLAPSSKSTSGGTAALGCLVKDYFPEPVTVSWNSGALTSGVHTFPAVLQSSGLYSLSSVVTVPSSSLGTQTYICNVNHKPSNTKVDKKV
chain 2: B4 chain 2
notes: 2H7 (anti-CD20) scFv and G19-4 (anti-CD3) scFv; also called αCD20×αCD3; TSC002 + TSC019
Turning to B5, the binding result with CD20 on cells is “binds”.

Values taken from US20180273642A1 (EMERGENT PRODUCT DEVELOPMENT SEATTLE, published 2018).
